Series [1] relates to full length Flag-ATRIP protein purified from insect cells following baculovirus infection.
Series [2] deals with NH2-terminal fragment of ATRIP isolated from bacteria.
Sequence of NH2-terminal fragment of ATRIP isolated from bacteria (chain, as listed by the source): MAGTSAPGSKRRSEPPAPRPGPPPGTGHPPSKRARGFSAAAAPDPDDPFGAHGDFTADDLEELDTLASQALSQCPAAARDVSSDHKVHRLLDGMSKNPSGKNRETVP

Sequence of Flag-ATR (ATR tagged with a Flag epitope, overexpressed in 293/293T cells) (chain, as listed by the source): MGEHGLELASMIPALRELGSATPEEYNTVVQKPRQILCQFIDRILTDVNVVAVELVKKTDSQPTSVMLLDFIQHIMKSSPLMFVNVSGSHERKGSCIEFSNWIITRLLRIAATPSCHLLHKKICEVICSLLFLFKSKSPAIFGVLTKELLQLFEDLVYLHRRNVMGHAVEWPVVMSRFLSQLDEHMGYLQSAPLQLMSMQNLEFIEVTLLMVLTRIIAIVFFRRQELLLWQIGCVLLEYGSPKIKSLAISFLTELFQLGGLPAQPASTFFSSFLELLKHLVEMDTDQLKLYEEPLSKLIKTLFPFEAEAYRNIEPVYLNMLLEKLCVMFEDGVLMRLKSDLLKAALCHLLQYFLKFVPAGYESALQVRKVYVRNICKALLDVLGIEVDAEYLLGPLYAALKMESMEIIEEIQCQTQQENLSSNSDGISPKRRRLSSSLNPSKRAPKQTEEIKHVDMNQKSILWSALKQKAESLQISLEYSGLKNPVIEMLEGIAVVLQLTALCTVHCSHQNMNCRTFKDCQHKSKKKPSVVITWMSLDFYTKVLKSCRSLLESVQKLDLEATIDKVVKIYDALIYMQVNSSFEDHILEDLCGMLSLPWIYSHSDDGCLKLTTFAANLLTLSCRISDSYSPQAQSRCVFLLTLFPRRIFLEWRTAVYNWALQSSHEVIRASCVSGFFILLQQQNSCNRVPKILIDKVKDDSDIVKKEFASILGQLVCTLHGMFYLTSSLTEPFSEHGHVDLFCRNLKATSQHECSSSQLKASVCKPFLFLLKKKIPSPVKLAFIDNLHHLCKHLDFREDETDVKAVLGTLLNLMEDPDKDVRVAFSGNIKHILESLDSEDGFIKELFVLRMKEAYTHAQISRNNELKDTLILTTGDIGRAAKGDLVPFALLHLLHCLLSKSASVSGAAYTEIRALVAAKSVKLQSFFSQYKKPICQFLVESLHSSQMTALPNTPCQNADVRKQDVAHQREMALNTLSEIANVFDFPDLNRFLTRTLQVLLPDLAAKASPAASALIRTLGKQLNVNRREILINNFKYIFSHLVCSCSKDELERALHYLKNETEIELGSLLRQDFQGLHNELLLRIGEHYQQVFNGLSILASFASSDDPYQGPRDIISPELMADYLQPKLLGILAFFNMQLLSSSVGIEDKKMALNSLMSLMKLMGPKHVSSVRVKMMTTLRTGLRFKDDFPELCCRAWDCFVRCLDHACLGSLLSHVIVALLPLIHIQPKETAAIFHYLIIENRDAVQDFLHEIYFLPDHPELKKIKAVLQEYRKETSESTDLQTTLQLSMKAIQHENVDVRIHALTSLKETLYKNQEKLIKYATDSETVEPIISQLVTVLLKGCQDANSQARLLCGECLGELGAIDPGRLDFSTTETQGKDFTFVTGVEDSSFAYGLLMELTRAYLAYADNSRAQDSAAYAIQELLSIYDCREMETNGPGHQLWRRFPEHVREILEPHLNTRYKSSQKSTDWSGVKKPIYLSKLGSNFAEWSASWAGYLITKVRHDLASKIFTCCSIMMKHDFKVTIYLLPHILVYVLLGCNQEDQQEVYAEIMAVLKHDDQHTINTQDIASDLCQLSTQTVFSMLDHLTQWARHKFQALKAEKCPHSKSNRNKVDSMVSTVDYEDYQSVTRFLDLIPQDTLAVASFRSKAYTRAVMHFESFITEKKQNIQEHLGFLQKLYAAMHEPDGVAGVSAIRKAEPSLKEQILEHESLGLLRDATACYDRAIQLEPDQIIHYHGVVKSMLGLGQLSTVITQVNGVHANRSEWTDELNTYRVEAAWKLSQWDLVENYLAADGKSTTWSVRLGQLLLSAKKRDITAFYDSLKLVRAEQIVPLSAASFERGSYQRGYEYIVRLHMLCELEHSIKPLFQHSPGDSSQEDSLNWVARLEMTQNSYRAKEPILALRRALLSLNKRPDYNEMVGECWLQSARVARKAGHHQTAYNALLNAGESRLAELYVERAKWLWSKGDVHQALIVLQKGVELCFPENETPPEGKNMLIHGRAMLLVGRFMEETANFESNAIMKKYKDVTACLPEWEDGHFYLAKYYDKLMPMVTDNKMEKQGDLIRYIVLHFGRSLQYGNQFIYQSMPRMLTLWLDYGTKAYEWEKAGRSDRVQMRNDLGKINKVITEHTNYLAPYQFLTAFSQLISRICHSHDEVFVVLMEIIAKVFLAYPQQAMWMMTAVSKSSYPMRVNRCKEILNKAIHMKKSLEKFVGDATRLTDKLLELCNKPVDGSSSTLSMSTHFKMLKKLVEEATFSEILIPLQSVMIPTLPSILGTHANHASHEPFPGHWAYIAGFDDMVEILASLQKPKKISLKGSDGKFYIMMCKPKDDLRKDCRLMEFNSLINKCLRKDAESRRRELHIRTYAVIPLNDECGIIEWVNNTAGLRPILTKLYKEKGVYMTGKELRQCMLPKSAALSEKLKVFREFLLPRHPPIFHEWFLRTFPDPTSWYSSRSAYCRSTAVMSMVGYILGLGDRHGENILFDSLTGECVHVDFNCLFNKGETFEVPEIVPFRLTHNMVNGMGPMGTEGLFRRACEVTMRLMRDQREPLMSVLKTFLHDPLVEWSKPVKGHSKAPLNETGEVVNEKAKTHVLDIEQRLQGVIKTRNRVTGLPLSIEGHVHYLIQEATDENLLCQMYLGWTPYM

Consider “Flag-ATR (ATR tagged with a Flag epitope, overexpressed in 293/293T cells)”, for which the “^32P-labeling in kinase assay” value in the series on Myc(3x)-tagged ATRIP is reported as “kinase assays with Flag-ATR immunoprecipitated from cells that also expressed Myc-ATRIP revealed ^32P-labeling of co-immunoprecipitated Myc-ATRIP”. In addition, the “phosphorylation in a kinase reaction” value in series [1] was “recombinant full-length ATRIP isolated from baculovirus-infected insect cells and an NH2-terminal fragment of ATRIP isolated from bacteria could both be phosphorylated when placed in a kinase reaction with ATR isolated from human cells”; in series [2], “recombinant full-length ATRIP isolated from baculovirus-infected insect cells and an NH2-terminal fragment of ATRIP isolated from bacteria could both be phosphorylated when placed in a kinase reaction with ATR isolated from human cells”.

Source of the values: US20030165934.
